# Results as given in US20100009361.
# Target: HA-tagged RAS
protein,measurement,value
"full-length, HA-tagged wild-type SOS1 (protein) MQAQQLPYEFFSEENAPKWRGLLVPALKKVQGQVHPTLESNDDALQYVEELILQLLNMLCQAQPRSASDVEERVQKSFPHPIDKWAIADAQSAIEKRKRRNPLSLPVEKIHPLLKEVLGYKIDHQVSVYIVAVLEYISADILKLVGNYVRNIRHYEITKQDIKVAMCADKVLMDMFHQDVEDINILSLTDEEPSTSGEQTYYDLVKAFMAEIRQYIRELNLIIKVFREPFVSNSKLFSANDVENIFSRIVDIHELSVKLLGHIEDTVEMTDEGSPHPLVGSCFEDLAEELAFDPYESYARDILRPGFHDRFLSQLSKPGAALYLQSIGEGFKEAVQYVLPRLLLAPVYHCLHYFELLKQLEEKSEDQEDKECLKQAITALLNVQSGMEKICSKSLAKRRLSESACRFYSQQMKGKQLAIKKMNEIQKNIDGWEGKDIGQCCNEFIMEGTLTRVGAKHERHIFLFDGLMICCKSNHGQPRLPGASNAEYRLKEKFFMRKVQINDKDDTNEYKHAFEIILKDENSVIFSAKSAEEKNNWMAALISLQYRSTLERMLDVTMLQEEKEEQMRLPSADVYRFAEPDSEENIIFEENMQPKAGIPIIKAGTVIKLIERLTYHMYADPNFVRTFLTTYRSFCKPQELLSLIIERFEIPEPEPTEADRIAIENGDQPLSAELKRFRKEYIQPVQLRVLNVCRHWVEHHFYDFERDAYLLQRMEEFIGTVRGKAMKKWVESITKIIQRKKIARDNGPGHNITFQSSPPTVEWHISRPGHIETFDLLTLHPIEIARQLTLLESDLYRAVQPSELVGSVWTKEDKEINSPNLLKMIRHTTNLTLWFEKCIVETENLEERVAVVSRIIEILQVFQELNNFNGVLEVVSAMNSSPVYRLDHTFEQIPSRQKKILEEAHELSEDHYKKYLAKLRSINPPCVPFFGIYLTNILKTEEGNPEVLKRHGKELINFSKRRKVAEITGEIQQYQNQPYCLRVESDIKRFFENLNPMGNSMEKEFTDYLFNKSLEIEPRNPKPLPRFPKKYSYPLKSPGVRPSNPRPGTMRHPTPLQQEPRKISYSRIPESETESTASAPNSPRTPLTPPPASGASSTTDVCSVFDSDHSSPFHSSNDTVFIQVTLPHGPRSASVSSISLTKGTDEVPVPPPVPPRRRPESAPAESSPSKIMSKHLDSPPAIPPRQPTSKAYSPRYSISDRTSISDPPESPPLLPPREPVRTPDVFSSSPLHLQPPPLGKKSDHGNAFFPNSPSPFTPPPPQTPSPHGTRRHLPSPPLTQEVDLHSIAGPPVPPRQSTSQHIPKLPPKTYKREHTHPSMHRDGPPLLENAHSS",RAS activation,"When wild type SOS1 was expressed, RAS activation was low in serum-deprived cells, then increased rapidly after EGF stimulation and finally returned toward basal levels by 30 min"
